# Measured values from the DeepSol protein solubility set.
# Assay: soluble on expression in E. coli; label from the status in PepcDB or PDB records
row,Sequence,soluble on expression in E. coli
1,MGSDKIHHHHHHKHIVIMMTFKQDILPIIEALCSEGYHVTVIGKKIYQKDINNINHAYFIPAGNKYIMRHMKVLSKAKIIILDTYYLMMGGYQKKKGQTVIQTWHAAGALKNFGLTDHQVDLKNKAMVRQYKKVYDATDYYLVGGEKMAQCFIQSFDASPSQMLKFGLPRLTQYFRSNLKLEQQRLKKKYHITNKLAVYVPTYREGQVAQRTIDKENFERHLPNYTLLSHLHPSTVDCQTSHSIDVTSLLIMADIIISDYSSLPIEASALNKPTLIYNYDEQQYEKVRGLNEFYYAIPERYKMSNEESIIQAIQDNDEQFQSLFNDWHQYNSKDSLNQLVHFINKLVK,not soluble
2,GAMSVASLPECVKNFFPTEQLEFSSSITADEKPVLHEVFQKHSCFSQCGEMIDEVSKKHPELGKRLATVLEGNKKRLDGLSPAAVEYAKKLIHMVTTTLCSLTVGKPIDDADAKRLHQEFQSLSSEDQAALRKNNPDIKF,soluble
3,GMSDQRYNLRGVSASKEDVHNAIKNIDKGIFPKAFCKIIPDILGGDPEYCNIMHADGAGTKSSLAYMYWKETGDLSVWKGIAQDALIMNIDDLLCVGAVDNILVSSTIGRNKLLVPGEVISAIINGTDELLAELREMGVGCYATGGETADVGDLVRTIIVDSTVTCRMKRSDVIDNKNIQGGDVIVGLASSGQATYEKEYNGGMGSNGLTSARHDVFSKYLAKKYPESYDAAVPKELVYSGGLKLTDKIEELGIDAGKMVLSPTRTYAPVIKVLLDKLRSQIHGMVHCSGGAQTKVMHFVENKRVTKDNLFPIPPLFRTIQEQSGTDWSEMYKVFNMGHRMEIYIAPEHAEEVIGISKSFGIDAQIVGFVEEADKNELIIESEKGRFTY,soluble
4,MRALRRGKGITLKQLAKALNKNISRGEAKNTESQIGNWERGERNPNYLEVKKLADYFDVSIDYLVGRYNNDQVDLAKAMITSSKLTYNDTPLDNNDKYEILQLISGYLHARGRRSTGDLININHQESLDLFNNQNDF,not soluble
5,MGSDKIHHHHHHGPASGRVEMKGESDSLSVRHGQENALSVSDEYPEGYVPVPGIRYQANYLTGNPERLDVKAALRNVRPLKLSQLGSQLDFMVFKDVKGGIFRLIPIEEGCLGVGIGGIWLLDGNLKMIRMLFRNDVDITEENGFTNFQTKRYINPDYYEKSSRTLIGVLYDQRDKKNPKSFVRLSLKDLLSASRPLTPDDIHKRAGISGNYLLGMADGYATWTRFTNDVYTFNLRGDTLCHFTIGEKVNYPPRGNGSYRSGEQATVYHYKGCPMIIMPYGNTVYRMKDASTLEPVYELDFGTLHRATGEEVVGGADVDNAYFLSDWVETDSYVFMHVEKGYDCPYARDKKQVTLYSLIYDKRSKAFFSLPQAEKTVHPCPEPDLPDGIPFWPRKGFSEEQLATFTTGWKLSKSSPEVFKRIPALQGTEKETTSLIITLK,not soluble
6,SSKEAFDELSVLSAIYCEQGEFEVLEESPEKGVVFRVHTLIDNNEKTPLDIIFHISPEYPNTPPDISISSNHLSRRQCHDLRRSLLDTAQSLPAEPMVHGLMLWLQENFSDLIKTSSCHSAEVRPETTEETWTALLHLDHMRSKAKYIKLIEKWTLELRLTGRLFTGKLILILLQGTKENIKQYIHLLKSVKVDVDSSGKRCKEKMMSVLCEIPKPEDKIMMTTFEVKDILSLDDLRREFDLIGLNELYHQFVSSLT,soluble
7,MAHHHHHHMVHWVISQFTTNVGLQQKSSIELLNEANREYESSSPFSVLVQHERAVERLTTAQRGLAASGAGSLARLDRDQLPSWTLRVIDEDCTMCFDNVTYASAVAADAGRSTNKTGHHKQKGLSVFATTSAPLGLMGPMLFAMASVTDDVDVAAELPRWQWVTWSYAQQRRFVHASQSRSTGERPRHLIVLGIPSTDQPMRYPLRDAQRATWLTYREVARTENNFTGALLQLYVFAAAEHDSEDSTHSAVDMVQLAPTVSEYAAATEQHLAVEAGDVNNAPPYLQRRVVLRDGWRDIPRSDDAVWRSPCAGVRTTVVTAASLVAGTSSLAALSAQLSLPVTPAFTAAAQYVCHVSAALWQEALHHRNSLWLDFLTDRKPTTKKKMGMSISWGIPTEVGMSQKTVLWLNYAYTAFPDVPYIMKGDDDMYLKVPQYLSDLRHVRGGWQKPRNLTVTIPHRGVIPPTLAIDDAEECLYRVWWTYSKKIAYGNGVGYILDRRLIQAALNPFDGFNALLMKLLTNPYDYRLEKEYLSLNMQYEDMHIGKQIRDHHDAVERFCPKKRVCYMADRRFRAHQILRPKPVKLTWISVMAHFGMPAIPYYVHYFHKNEFKVAEEAKRLIAQGIDAKTIEENATQRMHEWVASQVPSTLVGLGASFHLDWVRGDPHTAYTVAEEDEVAVYDVRYKLRRRNDVACVLESGKR,not soluble
8,MAHHHHHHMHHGATLHESLPCPLVSPIVSIDQCPFQPHERSETRPPHGNASLTFYTARSRCRVNFTPGPNVTYSAENKYSWNPYYRLETENKSQRLKAAQEECNSASVSGPCPIALTPRQGQCMARCSNTSSSTAQSPMHTFGCETPAIVSRCELSPQFSSVKSESGRALLTASHSIEENSITESTCVPQFDNMMHGLPMYASIHPVGEVWPLNEMNNEENVVFDAIKPTRNEQLQQQLYPTPLLVSQNQPTVSPYPYVMESRTIQPTYVSYNKARVPLLRFSKMLPPPVRCEAMSILENENPQLPLLMMYNPVLRWYERIKALLNEDYSAWPGGSCAVNISNNKSVRLELEEPCPTLPNKAEQTRENMSQWLKECNEWWDRQFFEKSRNGDKRRNGTGRGKWRQYSIQYPYNNHNNNNKAHKVNRGMQFDGEVAFLRRGGLQ,not soluble
9,MAAFMEEALVEARRARDAGEVPVGCVFVHGDKVVARGGNEVNVHRNATRHAEFICIDAILASCRERRLPARQLFSEITVVVTVEPCIMCSAALHTLGVKEIIYGCENDRFGGKTVVDVAAVVGHRIEITGGVRADEAMALLKDFYKGDNPAAPPQAKKKKLEHHHHHH,soluble
10,MDLSELERDNTGRCRLSSPVPAVCLKEPCVLGVDEAGRGPVLGPMVYAICYCPLSRLADLEALKVADSKTLTENERERLFAKMEEDGDFVGWALDVLSPNLISTSMLGRVKYNLNSLSHDTAAGLIQYALDQNVNVTQVFVDTVGMPETYQARLQQHFPGIEVTVKAKADSLFPVVSAASIFAKVARDKAVKNWQFVENLQDLDSDYGSGYPNDPKTKAWLRKHVDPVFGFPQFVRFSWSTAQAILEKEAEDVIWEDSEAEEDPERPGKITSYFSQGPQTCRPQAPHRYFQERGLEAASSL,soluble
11,MGSDKIHHHHHHMYPGCRLCINIGDQFARSVYYGRYKVIPIRTEIIKFCETMGFDYMGAIIWQKVTTTNTTGGATIMGSFPYPRNGILKLDYEFILFFKKQGNAPKPTREQKERSVISKEDWNTYFSGHWYFSGVKQEGHIAMFPEELPARLIKMFAFVGDTVLDPFLGSGTTSMAARNLERNSIGYEINQDFIPAIRQKLNVCQMDIHGAEYSFLEDSATIDCEQEIEKLPYVFKDPHKLDKKIDPKKLLFGSKIDRNSADREEYFSVKEVISPEVIRLSNGLLIRLMGVRENTAMNGLAVNFITEKTKGQKIFLKFDLQKHDSQNRLLCYVYLKNKTFLNAHLIKEGLAIVDRSVDFRYKDKFMKLEAQCG,not soluble
12,MDHIVLTHVFNGGSAESAALCPQDKIIALDGYACTDFAAQWARYHVRAKINIHFFRAGILRQTVLTVQATALEHHHHHH,not soluble
13,MSLEIGEKLRNLRIQKNLTQEELGERTDLSKGYISQLERDLSSPSMETFFSILEVLGVTPEQFFSQQPLEQKIVYNEEESTLYYDEEHGYELKWLIPASNEKEMEPVIITFDKNGEYKTFEPSLSETFIYVIDGSIRLTLGEATYIAKKGQTMYYQATEPHQISNNGRGKSRALIVATESYLEGGSHHHHHH,soluble
14,MSLGESRKHIDYKKGTINLNGVEYPLNDTNFPTINPENPLELLEEEAELLDKLQASFLGSEKLQKHMQLLFAKGGMYLKYNSNLLFHACIPMEPNGEFSKLYVEDGYYKGKALMDKIDNIVRQAYYDRKNVEVNKKHRDFIWYLWAGRLSPLFGKDVMKTFERYFIDDKSTHKEIKNPYHKLINDEKICDKIFEEFGLNPRTSHIINGHIPVKVKEGESPIKANGKLLIIDGGFSRAYQSTTGIAGYTLTYNSYGMKLASHLKFISKEAAIKDGTDMISSHIIVETKSKRMKVKDTDIGKNIQNQINDLKKLLKAYRIGLIKSNEGHHHHHH,not soluble
